The values that follow come from patent US20250346885A1, “SYSTEMS AND METHODS FOR TARGETED CONTINUOUS GENOME MUTAGENESIS” (The Broad Institute, Inc., priority 2023, published 2025).

One test concerns double-stranded DNA. The following applies: average base pairs unwound in a single binding event; cited from earlier work.
The next test relates to HEK3 locus. Put plainly: HACE editing assay at the HEK3 locus, amplicon sequencing. It counts as cell-based, human. The conditions noted are these: HEK293FT cells, HEs with and without UGI fusion. An excerpt: An example HACE Editor (HE) protein was constructed by fusing a hyperactive mutant of activation-induced cytidine deaminase (AID*Δ) with a Geobacillus stearothermophilus PcrA helicase that was previously optimized for processivity (PcrA M6). […] After the nCas9 creates a nick, the HE may load at the nick, start unwinding the DNA, and generate random mutations in the process.
Separate plasmids expressing HE, nCas9, and a sgRNA targeting the HEK3 locus were transfected into HEK293FT cells. Cells were collected 72 hours after transfection, and editing rates were evaluated by amplicon sequencing. […] A strand bias with G>A substitutions occurring at a higher rate than C>T substitutions was detected, which likely reflects preferential repair of mismatches on the nicked strand. […]
For short amplicon (˜300 bp) sequencing for HEK293T and A375 cells, the target region was amplified from genomic DNA samples using Phusion U Hot Start PCR master mix (ThermoFisher Scientific, F562) in a 20 μL reaction. […] Amplicons were pooled and prepared for sequencing on a NextSeq (Illumina) with paired-end reads (read1, 160 bp; index1, 8 bp; index2, 8 bp; read2, 160 bp). Reads were demultiplexed and analyzed with appropriate pipelines. […]
Raw fastq reads obtained from sequencing were quality trimmed using BBduk(1) (BBMap v38.93) with the options “qtrim=r1 trimq=28 maq=25”. […]

B1: UvrD: E. coli helicase (protein, UniProt P03018 1-720, looked up)
DNA helicase II: MDVSYLLDSLNDKQREAVAAPRSNLLVLAGAGSGKTRVLVHRIAWLMSVENCSPYSIMAVTFTNKAAAEMRHRIGQLMGTSQGGMWVGTFHGLAHRLLRAHHMDANLPQDFQILDSEDQLRLLKRLIKAMNLDEKQWPPRQAMWYINSQKDEGLRPHHIQSYGNPVEQTWQKVYQAYQEACDRAGLVDFAELLLRAHELWLNKPHILQHYRERFTNILVDEFQDTNNIQYAWIRLLAGDTGKVMIVGDDDQSIYGWRGAQVENIQRFLNDFPGAETIRLEQNYRSTSNILSAANALIENNNGRLGKKLWTDGADGEPISLYCAFNELDEARFVVNRIKTWQDNGGALAECAILYRSNAQSRVLEEALLQASMPYRIYGGMRFFERQEIKDALSYLRLIANRNDDAAFERVVNTPTRGIGDRTLDVVRQTSRDRQLTLWQACRELLQEKALAGRAASALQRFMELIDALAQETADMPLHVQTDRVIKDSGLRTMYEQEKGEKGQTRIENLEELVTATRQFSYNEEDEDLMPLQAFLSHAALEAGEGQADTWQDAVQLMTLHSAKGLEFPQVFIVGMEEGMFPSQMSLDEGGRLEEERRLAYVGVTRAMQKLTLTYAETRRLYGKEVYHRPSRFIGELPEECVEEVRLRATVSRPVSHQRMGTPMVENDSGYKLGQRVRHAKFGEGTIVNMEGSGEHSRLQVAFQGQGIKWLVAAYARLESV
For the molecule B1, the processivity range with double-stranded DNA is listed as 30-40 base pairs.

B2: Rep: helicase with short-range processivity (protein, UniProt P09980 1-673, looked up)
ATP-dependent DNA helicase Rep: MRLNPGQQQAVEFVTGPCLVLAGAGSGKTRVITNKIAHLIRGCGYQARHIAAVTFTNKAAREMKERVGQTLGRKEARGLMISTFHTLGLDIIKREYAALGMKANFSLFDDTDQLALLKELTEGLIEDDKVLLQQLISTISNWKNDLKTPSQAAASAIGERDRIFAHCYGLYDAHLKACNVLDFDDLILLPTLLLQRNEEVRKRWQNKIRYLLVDEYQDTNTSQYELVKLLVGSRARFTVVGDDDQSIYSWRGARPQNLVLLSQDFPALKVIKLEQNYRSSGRILKAANILIANNPHVFEKRLFSELGYGAELKVLSANNEEHEAERVTGELIAHHFVNKTQYKDYAILYRGNHQSRVFEKFLMQNRIPYKISGGTSFFSRPEIKDLLAYLRVLTNPDDDSAFLRIVNTPKREIGPATLKKLGEWAMTRNKSMFTASFDMGLSQTLSGRGYEALTRFTHWLAEIQRLAEREPIAAVRDLIHGMDYESWLYETSPSPKAAEMRMKNVNQLFSWMTEMLEGSELDEPMTLTQVVTRFTLRDMMERGESEEELDQVQLMTLHASKGLEFPYVYMVGMEEGFLPHQSSIDEDNIDEERRLAYVGITRAQKELTFTLCKERRQYGELVRPEPSRFLLELPQDDLIWEQERKVVSAEERMQKGQSHLANLKAMMAAKRGK
For B2, in the test with double-stranded DNA, the processivity range is reported as 30-50 base pairs.

B3: Sgs1: helicase with short-range processivity (protein, UniProt P35187 1-1447, looked up)
ATP-dependent helicase SGS1: MVTKPSHNLRREHKWLKETATLQEDKDFVFQAIQKHIANKRPKTNSPPTTPSKDECGPGTTNFITSIPASGPTNTATKQHEVMQTLSNDTEWLSYTATSNQYADVPMVDIPASTSVVSNPRTPNGSKTHNFNTFRPHMASSLVENDSSRNLGSRNNNKSVIDNSSIGKQLENDIKLEVIRLQGSLIMALKEQSKLLLQKCSIIESTSLSEDAKRLQLSRDIRPQLSNMSIRIDSLEKEIIKAKKDGMSKDQSKGRSQVSSQDDNIISSILPSPLEYNTSSRNSNLTSTTATTVTKALAITGAKQNITNNTGKNSNNDSNNDDLIQVLDDEDDIDCDPPVILKEGAPHSPAFPHLHMTSEEQDELTRRRNMRSREPVNYRIPDRDDPFDYVMGKSLRDDYPDVEREEDELTMEAEDDAHSSYMTTRDEEKEENELLNQSDFDFVVNDDLDPTQDTDYHDNMDVSANIQESSQEGDTRSTITLSQNKNVQVILSSPTAQSVPSNGQNQIGVEHIDLLEDDLEKDAILDDSMSFSFGRQHMPMSHSDLELIDSEKENEDFEEDNNNNGIEYLSDSDLERFDEERENRTQVADIQELDNDLKIITERKLTGDNEHPPPSWSPKIKREKSSVSQKDEEDDFDDDFSLSDIVSKSNLSSKTNGPTYPWSDEVLYRLHEVFKLPGFRPNQLEAVNATLQGKDVFVLMPTGGGKSLCYQLPAVVKSGKTHGTTIVISPLISLMQDQVEHLLNKNIKASMFSSRGTAEQRRQTFNLFINGLLDLVYISPEMISASEQCKRAISRLYADGKLARIVVDEAHCVSNWGHDFRPDYKELKFFKREYPDIPMIALTATASEQVRMDIIHNLELKEPVFLKQSFNRTNLYYEVNKKTKNTIFEICDAVKSRFKNQTGIIYCHSKKSCEQTSAQMQRNGIKCAYYHAGMEPDERLSVQKAWQADEIQVICATVAFGMGIDKPDVRFVYHFTVPRTLEGYYQETGRAGRDGNYSYCITYFSFRDIRTMQTMIQKDKNLDRENKEKHLNKLQQVMAYCDNVTDCRRKLVLSYFNEDFDSKLCHKNCDNCRNSANVINEERDVTEPAKKIVKLVESIQNERVTIIYCQDVFKGSRSSKIVQANHDTLEEHGIGKSMQKSEIERIFFHLITIRVLQEYSIMNNSGFASSYVKVGPNAKKLLTGKMEIKMQFTISAPNSRPSTSSSFQANEDNIPVIAQKSTTIGGNVAANPPRFISAKEHLRSYTYGGSTMGSSHPITLKNTSDLRSTQELNNLRMTYERLRELSLNLGNRMVPPVGNFMPDSILKKMAAILPMNDSAFATLGTVEDKYRRRFKYFKATIADLSKKRSSEDHEKYDTILNDEFVNRAAASSNGIAQSTGTKSKFFGANLNEAKENEQIINQIRQSQLPKNTTSSKSGTRSISKSSKKSANGRRGFRNYRGHYRGRK
Turning to B3, the processivity range result in the test on double-stranded DNA is “about 100 base pairs”.

B4: TraI: E. coli helicase (protein)
chain: MAKIHMVLQGKGGVGKSAIAAIIAQYKMDKGQTPLCIDTDPVNATFEGYKALNVRRLNIMAGDEINSRNFDTLVELIAPTKDDVVIDNGASSFVPLSHYLISNQVPALLQEMGHELVIHTVVTGGQALLDTVSGFAQLASQFPAEALFVVWLNPYWGPIEHEGKSFEQMKAYTANKARVSSIIQIPALKEETYGRDFSDMLQERLTFDQALADESLTIMTRQRLKIVRRGLFEQLDAAAVL
Turning to B4, in the test on double-stranded DNA, the processivity range entry was “at least 850 base pairs”.

B5: UGI: uracil DNA glycosylase inhibitor fused to the HACE editor (protein, UniProt P14739 1-84, looked up)
Uracil-DNA glycosylase …: MTNLSDIIEKETGKQLVIQESILMLPEEVEEVIGNKPESDILVHTAYDESTDENVMLLTSDAPEYKPWALVIQDSNGENKIKML
modifications: fused to HACE editor
For the molecule B5, in the test on HEK3 locus, the “effect of UGI fusion on editing levels for AID” value is recorded as “significantly elevated the editing levels”.
